B1: Hairpin Ribozyme (parent)
chain: GUCCUCUUUCACGUGCGCGUGAAAGAGAGAAGUGAACCAGAGAAACACACGUUGUGGUAUAUUACCUGGUA

Variants of: B1
Assay: self-cleavage, relative activity (ratio to wild type); higher = more cleavage; co-transcriptional

Variant	self-cleavage
C10G A44C	0.126
C10G A44U	0.133
C10G U53C	0.59
C10G U53A	0.663
A11G A30U	0.118
A11C C50U	0.247
C10A A49C	0.223
A11G C18A	0.795
A11G C18U	0.939
C10A C12U	0.452
C10A C12G	0.556
U9G G68C	0.136
A11G A47C	0.481
A11C A24C	0.709
A11C A24U	0.615
C10U A22C	0.631
U9G A71C	1.2
U9G A71G	0.779
U9G A71U	0.601
U9G U55C	0.163
U9G C10A	0.735
U9G C10U	0.743
A11C A26U	0.482
A11C A26C	0.41

Variant	self-cleavage
C10G G69U	0.142
C10G G69A	0.299
C10U U63A	0.25
C10U U63G	0.263
U9G G15C	0.893
U9G G15U	0.894
U9G A59C	0.275
U9G A59U	0.101
A11G C50A	0.196
A11G C50G	0.346
A11C G13A	0.661
U9G A61G	0.257
A11G A23G	0.83
C10A G68C	0.114
C10U A59G	0.206
C10U A59C	0.227
C10A A23C	0.657
C10A U67A	0.0418
U9G G27C	0.115
C10A G15U	0.871
U9G G69C	0.299
A11C U14C	0.68
A11C G57C	0.145
A11C C18A	0.768

Variant	self-cleavage
A11C C65G	0.331
C10G A36G	0.778
C10A C37U	0.437
C10A C37G	0.266
C10A A22C	0.636
C10G U67C	0.172
C10G U67A	0.191
A11C U67C	0.225
A11G A36G	0.972
U9G U58C	0.794
U9G U58G	0.579
C10U U33A	0.169
C10G G17U	0.539
C10G G17C	0.533
C10U A39U	0.334
C10A A39G	0.224
C10A A39U	0.262
A11G A44G	0.0822
A11G A44C	0.203
U9G U33C	0.176
U9G U33A	0.102
U9G U62G	0.154
A11C G40U	0.181
A11C G40C	0.182

Variant	self-cleavage
A11C A64G	0.462
A11C A64C	0.0846
A11G G32A	0.0907
A11G G32U	0.104
A11G G54A	0.487
C10A A24G	0.57
C10A A24U	0.584
C10A A45G	0.138
C10A G21U	0.939
U9G G40C	0.104
A11G G19A	0.88
C10A A59U	0.234
A11C C48U	0.266
A11C C48A	0.0917
A11C C48G	0.0688
A11C A61G	0.0356
A11C A61U	0.118
C10A C50A	0.255
C10A C50G	0.352
C10A A36C	0.528
A11G A28C	0.446
A11C C16U	0.811
C10A U63A	0.118
C10A A28C	0.251

Variant	self-cleavage
U9G C38U	0.41
U9G C38A	0.243
C10U A11G	0.734
C10U U62C	0.281
A11G A41C	1.06
A11G A59U	0.199
C10G A59U	0.16
U9G U67C	0.188
C10G G29C	0.106
C10G G29A	0.0932
A11C A41U	1.29
A11C A41C	1.25
A11C C46U	0.255
A11C C46G	0.204
A11G G29U	0.142
U9G G57A	0.132
A11C C66G	0.0776
C10U A61G	0.201
C10U A61C	0.311
C10G U70G	0.611
C10U G17C	0.58
C10U G17A	0.808
C10G U62A	0.0993
C10G U62C	0.261

Variant	self-cleavage
C10G G13A	0.568
A11C U60C	1.27
A11C A45U	0.128
A11C A45C	0.0923
C10G G21A	0.704
C10G G21C	0.93
C10G G21U	0.872
U9G U20G	0.333
C10G A35C	0.726
C10G A35G	0.656
C10U C18G	0.755
A11C	0.849
A11G	0.883
A11G C66A	0.29
A11C G69U	0.299
A11C G69A	0.381
C10U A41C	1.03
C10U A41U	0.817
C10G C66U	0.347
C10G C66G	0.189
C10U U70G	0.698
A11C G15A	0.819
A11C G15C	0.752
C10A A35U	0.56

Variant	self-cleavage
C10A A35G	0.63
C10U A31U	0.103
C10U A31G	0.812
U9G C66A	0.279
C10U G27A	0.403
A11G C48G	0.109
A11G C48A	0.0849
U9G U60G	0.322
A11G A35C	0.996
A11G A35U	0.764
C10U A26U	0.624
A11C U58G	0.696
A11C A22G	0.966
U9G G19C	0.56
A11C G51A	1.08
C10U G51A	0.881
C10U G51U	0.888
A11C G17A	0.759
C10A U55A	0.23
C10U G13C	0.471
C10U G13U	0.612
A11C A36G	1.07
A11C A36U	0.491
